The values below come from publication PMC7835374 (2021).

The assay has as its target recombinant full-length hemagglutinin H6 (A/Taiwan/2/2013) (influenza A virus H6N1 (A/Taiwan/2/2013)). The assay can be described thus: BLI.

B1: 3I14^D93N IgG1 (antibody, V domains shown)
VH: QVQLLESGGGVVQPGRSLRLSCAASGFTFSNYGMHWVRQAPGKGLEWVAIISFDGSKKYYANSVKGRSTISRDNSKNTLSLQMNSLGPEDTALYYCAKLPSPYYFDSRFVWVAASAFHFWGQGILVTVSS
VL: LTQPPSASGTPGQRVTISCSGSSSNIGGNTVHWFQQLPGTAPKLLIYTNSLRPSGVPDRFSGSKSGTSASLAISGLQSEDEADYYCAAWDNSLNGQVFGGGTKLTVL
As for B1, the Kd worked out at 0.4 nM.
